Article PMC5884802

What was measured:
[1] = tested on: Amp(short)-FAM (α-Amp(short) aptamer) (DNA, aptamer) CACGGCATGGTGGGCGTCGTG; assay: microscale thermophoresis; conditions: Na+ 50 mM, K+ 5 mM, Mg2+ 5 mM, Ca2+ 2 mM; 20 mM Tris-HCl, 0.1% Tween-20, pH 8.0; second printed KD 600 nM, unexplained
[2] = tested on: α-CRP (α-CRP-AuNP) (DNA, aptamer) ACACGATGGGGGGGTATGATTTGATGTGGTTGTTGCATGATCGTGG; assay: competitive lateral flow assay; conditions: Na+ 50 mM, K+ 5 mM, Mg2+ 5 mM, Ca2+ 2 mM; 20 mM Tris, 0.1 mM BSA, 1.7% Triton-X-100, pH 8; biotinylated CRP displaced; signal decrease at 18.5 µg ampicillin
[3] = tested on: α-Amp-short (α-Amp-short-AuNP) (DNA, aptamer) CACGGCATGGTGGGCGTCGTG; assay: competitive lateral flow assay; conditions: Na+ 50 mM, K+ 5 mM, Mg2+ 5 mM, Ca2+ 2 mM; 20 mM Tris, 0.1 mM BSA, 1.7% Triton-X-100, pH 8; biotinylated CRP displaced; signal decrease at 185 µg ampicillin
[4] = tested on: CRP-FAM (α-CRP aptamer) (DNA, aptamer) ACACGATGGGGGGGTATGATTTGATGTGGTTGTTGCATGATCGTGG; assay: microscale thermophoresis; conditions: Na+ 50 mM, K+ 5 mM, Mg2+ 5 mM, Ca2+ 2 mM; 20 mM Tris-HCl, 0.1% Tween-20, pH 8.0; up to 100 µM; no plateau, no fit
[5] = biological target: T1, C-reactive protein (CRP), biotinylated (UniProt P02741 19-224); assay: MST; binding indicated, no plateau, no Kd fit; CRP-biotin 610 pM-20 µM; LFA: 20 mM Tris, 50 mM NaCl, 5 mM KCl, 5 mM MgCl2, 2 mM CaCl2, 0.1 mM BSA, 1.7% Triton X-100, pH 8, temperature not stated; MST with CRP-biotin: 32.8 mM Tris-HCl, 70.5 mM NaCl, 2.5 mM KCl, 2.5 mM MgCl2, 1.4 mM CaCl2, 0.1% Tween-20, 5 nM FAM-oligo; conditions: protein: commercial; tags: biotin (NHS-PEG4-Biotin); chain copies: 5; label: 5' FAM; stem-loop (Mfold)
T1 sequence: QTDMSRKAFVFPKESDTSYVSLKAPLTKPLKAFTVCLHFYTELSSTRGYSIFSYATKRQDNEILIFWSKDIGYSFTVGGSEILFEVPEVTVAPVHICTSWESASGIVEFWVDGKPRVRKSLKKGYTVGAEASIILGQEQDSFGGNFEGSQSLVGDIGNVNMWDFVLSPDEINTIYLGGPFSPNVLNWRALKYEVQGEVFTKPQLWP

[6] = biological target: T1, C-reactive protein (CRP), biotinylated; assay: lateral flow assay (AuNP); 40.5 µg CRP-biotin; LFA: 20 mM Tris, 50 mM NaCl, 5 mM KCl, 5 mM MgCl2, 2 mM CaCl2, 0.1 mM BSA, 1.7% Triton X-100, pH 8, temperature not stated; MST with CRP-biotin: 32.8 mM Tris-HCl, 70.5 mM NaCl, 2.5 mM KCl, 2.5 mM MgCl2, 1.4 mM CaCl2, 0.1% Tween-20, 5 nM FAM-oligo; conditions: protein: commercial; tags: biotin (NHS-PEG4-Biotin); chain copies: 5; label: 10 nm gold nanoparticle via 5' thiol; stem-loop (Mfold)
[7] = biological target: T1, C-reactive protein (CRP), biotinylated; assay: lateral flow assay (FAM); 4 µg CRP-biotin; LFA: 20 mM Tris, 50 mM NaCl, 5 mM KCl, 5 mM MgCl2, 2 mM CaCl2, 0.1 mM BSA, 1.7% Triton X-100, pH 8, temperature not stated; MST with CRP-biotin: 32.8 mM Tris-HCl, 70.5 mM NaCl, 2.5 mM KCl, 2.5 mM MgCl2, 1.4 mM CaCl2, 0.1% Tween-20, 5 nM FAM-oligo; conditions: protein: commercial; tags: biotin (NHS-PEG4-Biotin); chain copies: 5; label: 5' FAM
[8] = biological target: T1, C-reactive protein (CRP), biotinylated; assay: lateral flow assay (AuNP); 40.5 µg CRP-biotin; test line stronger than α-CRP; LFA: 20 mM Tris, 50 mM NaCl, 5 mM KCl, 5 mM MgCl2, 2 mM CaCl2, 0.1 mM BSA, 1.7% Triton X-100, pH 8, temperature not stated; MST with CRP-biotin: 32.8 mM Tris-HCl, 70.5 mM NaCl, 2.5 mM KCl, 2.5 mM MgCl2, 1.4 mM CaCl2, 0.1% Tween-20, 5 nM FAM-oligo; conditions: protein: commercial, tags: biotin (NHS-PEG4-Biotin), chain copies: 5, label: 10 nm gold nanoparticle via 5' thiol

CC1(C)S[C@@H]2[C@H](NC(=O)[C@H](N)c3ccccc3)C(=O)N2[C@H]1C(=O)O
KD [1]: 263 nM
binding [2]: yes
binding [3]: yes
binding [4]: yes

ACACGATGGGGGGGTATGATTTGATGTGGTTGTTGCATGATCGTGG (ssDNA) [CRP-FAM]
binding result [5]: binds

ACACGATGGGGGGGTATGATTTGATGTGGTTGTTGCATGATCGTGG (ssDNA, 5' SH-(C6H12) thiol) [α-CRP (AuNP conjugate)]
binding result [6]: binds

ACACGAACCGGGCCAATGATTTGATGACCTTGTTGCATGATCGTAG (ssDNA) [CRP w/o TGG-FAM]
binding result [7]: binds

CACGGCATAGACCGCGTCGTG (ssDNA) [Amp(short) w/o TGG-FAM]
binding result [7]: binds

CACGGCATGGTGGGCGTCGTG (ssDNA, 5' SH-(C6H12) thiol) [α-Amp-short (AuNP conjugate)]
binding result ([8]; stem-loop (Mfold)): binds

CACGGCATGGTGGGCGTCGTG (ssDNA) [Amp(short)-FAM]
binding result [5]: binds

TTTTTTTTTTTTTTTCACGGCATGGTGGGCGTCGTG (ssDNA, 5' SH-(C6H12) thiol) [α-Amp-poly(T) (AuNP conjugate)]
binding result [8]: binds
